Here are results for one molecule from PMC12361007 (AMB Express, 2025).

The target in this experiment is human serum albumin (human, UniProt P02768 25-609). Nature of the experiment: BLI. On the technique in general: Biolayer interferometry detects binding as a change in optical thickness at a sensor tip.

B1: rhIL-22BP-ABD (recombinant human IL-22 binding protein fused to the albumin-binding domain ABD) (other)
chain: TQSTHESLKPQRVQFQSRNFHNILQWQPGRALTGNSSVYFVQYKIYGQRQWKNKEDCWGTQELSCDLTSETSDIQEPYYGRVRAASAGSYSEWSMTPRFTPWWETKIDPPVMNITQVNGSLLVILHAPNLPYRYQKEKNVSIEDYYELLYRVFIINNSLEKEQKVYEGAHRAVEIEALTPHSSYCVVAEIYQPMLDRRSQRSEERCVEIPLAEAKVLANRELDKYGVSDYYKNLINNAKTVEGVKALIDEILAALP
Take B1: the Kd (usually the concentration at which binding is half-saturated) came to 1150 nM.
